Three substances from publication PMC3999168 can be followed below.

For orientation: Kd means the equilibrium constant for the complex coming apart.

The data set has as its system LL-37 (native) (human). As to the kind of experiment: EMSA. The conditions noted are these: EMSA with 5' 6-FAM PCR products, as previously published; buffer, salt, pH and temperature not in the material. On the technique in general: In EMSA bound probe runs differently from free probe, usually more slowly.
Take mucA fragment: the Kd was determined as 12.8 µM.

For the substance lecB fragment, the Kd came out at 12.8 µM.

For algT (algU) fragment, the Kd was found to be 12.8 µM.
